Source: patent US20040086528A1 (PROGENICS PHARMACEUTICALS, published 2004)

Key:
SF162 gp120 = biological target: T1, SF162 gp120 (HIV-1 SF162, UniProt P19550 32-502); assay: 125I-MIP-1β competition on activated CD4+ T cells
T1 construct: domain: gp120; also called SF 162 (B)
Description: (§1) PBMCs were isolated from blood donors by Ficoll-Hypaque centrifugation, and stimulated for 2-3 days with phytohaemagglutnin (5 μg ml⁻¹) and IL-2 (100 U ml⁻¹) (Roche). CD4⁺ T cells were purified from the activated PBMCs by positive selection using anti-CD4 immunomagnetic beads (Dynal Inc.). […] The cells were screened for CCR-5-defective alleles(14), and only cells from wild-type donors were used (except when specified).
(§2) Unlabelled ligand or gp120 (mixed with monoclonal antibodies when appropriate) was added to the cells immediately before radiolabelled ligand was added. Anti-CD4 monoclonal antibodies were added to the cells simultaneously with gp120. These cells were then separated from unbound ligand by centrifugation (60 s, 14, 000 g) through oil (80% silicone oil, Aldrich; 20% mineral oil, Sigma), and the radioactivity in the cell pellet was determined by gamma counting. […] Each experiment was repeated at least twice using cells from different donors.

soluble CD4 = biological target: T2, soluble CD4 (UniProt P01730 26-394); assay: 125I-MIP-1β competition on activated CD4+ T cells
T2 construct: also called sCD4
Description: as §1, §2

B1: chemokine receptor C-C CKR-5 (human) (receptor)
chain: not shown
notes: whole, on cells; also called CCR-5; CCR5
binding result (SF162 gp120): binds
binding result (soluble CD4): no binding (tested: 50 µg ml^-1)
